# Test results taken from doi:10.1101/2021.03.12.434960.
# T1: full-length human KIF5B, C-terminal mScarlet-StrepII (human), P33176
# T1 chain: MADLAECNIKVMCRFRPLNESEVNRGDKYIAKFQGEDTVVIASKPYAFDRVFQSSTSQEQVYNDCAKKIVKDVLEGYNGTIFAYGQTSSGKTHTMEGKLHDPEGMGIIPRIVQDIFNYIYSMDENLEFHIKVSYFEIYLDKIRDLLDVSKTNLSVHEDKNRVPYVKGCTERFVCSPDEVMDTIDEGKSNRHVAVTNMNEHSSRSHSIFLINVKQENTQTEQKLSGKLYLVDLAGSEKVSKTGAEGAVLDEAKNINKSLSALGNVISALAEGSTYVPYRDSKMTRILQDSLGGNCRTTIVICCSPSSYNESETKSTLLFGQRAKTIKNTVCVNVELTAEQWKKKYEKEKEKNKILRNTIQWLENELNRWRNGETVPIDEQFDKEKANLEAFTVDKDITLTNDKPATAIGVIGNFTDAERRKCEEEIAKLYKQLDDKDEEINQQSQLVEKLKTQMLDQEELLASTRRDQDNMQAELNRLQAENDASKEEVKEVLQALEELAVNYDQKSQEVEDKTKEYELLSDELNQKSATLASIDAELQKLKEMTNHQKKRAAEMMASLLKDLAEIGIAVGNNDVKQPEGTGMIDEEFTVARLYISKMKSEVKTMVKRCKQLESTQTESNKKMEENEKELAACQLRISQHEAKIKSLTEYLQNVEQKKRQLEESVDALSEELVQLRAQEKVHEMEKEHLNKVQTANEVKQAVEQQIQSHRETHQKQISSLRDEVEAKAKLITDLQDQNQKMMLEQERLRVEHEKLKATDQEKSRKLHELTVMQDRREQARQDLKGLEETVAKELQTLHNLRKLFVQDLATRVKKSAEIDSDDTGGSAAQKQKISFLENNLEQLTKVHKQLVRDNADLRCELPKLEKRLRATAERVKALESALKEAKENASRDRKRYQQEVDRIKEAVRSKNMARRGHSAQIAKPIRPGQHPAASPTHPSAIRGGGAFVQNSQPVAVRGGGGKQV
# T2: full-length human KIF5A, C-terminal mScarlet-StrepII (human), Q12840
# T2 chain: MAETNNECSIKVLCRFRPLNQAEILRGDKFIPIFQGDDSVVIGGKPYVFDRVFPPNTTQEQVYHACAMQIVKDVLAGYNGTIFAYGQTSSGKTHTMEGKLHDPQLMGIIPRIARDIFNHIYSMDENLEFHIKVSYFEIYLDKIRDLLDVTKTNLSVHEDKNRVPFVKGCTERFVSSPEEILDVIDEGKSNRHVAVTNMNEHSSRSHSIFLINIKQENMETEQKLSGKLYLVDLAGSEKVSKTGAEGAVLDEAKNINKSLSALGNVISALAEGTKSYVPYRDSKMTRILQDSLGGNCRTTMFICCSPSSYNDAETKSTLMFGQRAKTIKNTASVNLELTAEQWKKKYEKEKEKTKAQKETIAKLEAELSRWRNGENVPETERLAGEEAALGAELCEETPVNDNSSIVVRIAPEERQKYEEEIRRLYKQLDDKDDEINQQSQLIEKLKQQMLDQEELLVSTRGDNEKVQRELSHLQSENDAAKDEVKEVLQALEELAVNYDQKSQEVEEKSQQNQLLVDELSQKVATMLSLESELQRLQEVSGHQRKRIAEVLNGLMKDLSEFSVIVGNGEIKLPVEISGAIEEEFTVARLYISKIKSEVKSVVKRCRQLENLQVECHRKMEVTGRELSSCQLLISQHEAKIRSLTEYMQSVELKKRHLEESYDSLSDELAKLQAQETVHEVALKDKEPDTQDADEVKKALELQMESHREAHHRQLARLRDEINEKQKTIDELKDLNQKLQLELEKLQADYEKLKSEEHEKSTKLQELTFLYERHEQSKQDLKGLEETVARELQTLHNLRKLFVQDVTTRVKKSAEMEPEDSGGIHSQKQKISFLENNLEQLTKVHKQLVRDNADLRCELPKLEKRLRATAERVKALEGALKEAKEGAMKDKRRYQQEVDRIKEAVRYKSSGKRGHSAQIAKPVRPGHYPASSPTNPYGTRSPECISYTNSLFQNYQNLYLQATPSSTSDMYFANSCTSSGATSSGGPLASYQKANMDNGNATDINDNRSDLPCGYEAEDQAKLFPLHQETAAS
# B1: full-length human KIF5B, C-terminal mScarlet-StrepII, P33176 1-963 (natural protein)
# chain: T1 chain
# B2: full-length human KIF5A, C-terminal mScarlet-StrepII, Q12840 1-1032 (natural protein)
# chain: T2 chain
# What was measured:
# [1] = biological target: T1, full-length human KIF5B, C-terminal …; experiment: SEC-MALS; settings: remark: other sources report otherwise
# [2] = biological target: T2, full-length human KIF5A, C-terminal …; experiment: SEC-MALS; settings: remark: other sources report otherwise
Binder,stoichiometry N [1],stoichiometry N [2]
B1,2,–
B2,–,2
